The source of these data is US20240270846A1 (published 2024).

B1: CE115HA000 A99T one-arm antibody (antibody, human IgG1, kappa, L234A L235A, N297A, name in Kabat numbering)
heavy: QVQLVESGGGVVQPGRSLRLSCAASGFTFSNAWMHWVRQAPGKGLEWVAQIKAKSNNYATYYAESVKGRFTISRDDSKNSLYLQMNSLKTEDTAVYYCRYVHYGTYYGVDAWGQGTTVTVSSASTKGPSVFPLAPSSKSTSGGTAALGCLVKDYFPEPVTVSWNSGALTSGVHTFPAVLQSSGLYSLSSVVTVPSSSLGTQTYICNVNHKPSNTKVDKKVEPKSCDKTHTCPPCPAPEAAGGPSVFLFPPKPKDTLMISRTPEVTCVVVDVSHEDPEVKFNWYVDGVEVHNAKTKPREEQYASTYRVVSVLTVLHQDWLNGKEYKCKVSNKALPAPIEKTISKAKGQPREPQVYTLPPSRCELTKNQVSLSCAVKGFYPSDIAVEWESNGQPENNYKTTPPVLDSDGSFFLVSKLTVDKSRWQQGNVFSCSVMHEALHNHYTQKSLSLSPDYKDDDDK
chain: EPKSSDKTHTCPPCPAPELLGGPSVFLFPPKPKDTLMISRTPEVTCVVVDVSHEDPEVKFNWYVDGVEVHNAKTKPREEQYNSTYRVVSVLTVLHQDWLNGKEYKCKVSNKALPAPIEKTISKAKGQPREPQVCTLPPSRDELTKNQVSLWCLVKGFYPSDIAVEWESNGQPENNYKTTPPVLDSDGSFFLYSKLTVDKSRWQQGNVFSCSVMHEALHNRYTQKSLSLSP
light: DIVMTQSPLSLPVTPGEPASISCRSSQSLVHSNRNTYLHWYQQKPGQAPRLLIYKVSNRFSGVPDRFSGSGSGTDFTLKISRVEAEDVGVYYCGQGTQVPYTFGQGTKLEIKRTVAAPSVFIFPPSDEQLKSGTASVVCLLNNFYPREAKVQWKVDNALQSGNSQESVTEQDSKDSTYSLSSTLTLSKADYEKHKVYACEVTHQGLSSPVTKSFNRGEC
notes: one-arm antibody (one Fab)
B2: CE115HA000 D101F one-arm antibody (antibody, human IgG1, kappa, L234A L235A, N297A, name in Kabat numbering)
heavy: B1 heavy with T105A, D110F
chain: B1 chain
light: B1 light
notes: one-arm antibody (one Fab)
B3: CE115HA000 D101I one-arm antibody (antibody, human IgG1, kappa, L234A L235A, N297A, name in Kabat numbering)
heavy: B1 heavy with T105A, D110I
chain: B1 chain
light: B1 light
notes: one-arm antibody (one Fab)
B4: CE115HA000 D101Q one-arm antibody (antibody, human IgG1, kappa, L234A L235A, N297A, name in Kabat numbering)
heavy: B1 heavy with T105A, D110Q
chain: B1 chain
light: B1 light
notes: one-arm antibody (one Fab)
B5: CE115HA000 G98A one-arm antibody (antibody, human IgG1, kappa, L234A L235A, N297A, name in Kabat numbering)
heavy: B1 heavy with G104A, T105A
chain: B1 chain
light: B1 light
notes: one-arm antibody (one Fab)
B6: CE115HA000 G98H one-arm antibody (antibody, human IgG1, kappa, L234A L235A, N297A, name in Kabat numbering)
heavy: B1 heavy with G104H, T105A
chain: B1 chain
light: B1 light
notes: one-arm antibody (one Fab)
B7: CE115HA000 A102Y one-arm antibody (antibody, human IgG1, kappa, L234A L235A, N297A, name in Kabat numbering)
heavy: B1 heavy with T105A, A111Y
chain: B1 chain
light: B1 light
notes: one-arm antibody (one Fab)
B8: CE115HA000 D101K one-arm antibody (antibody, human IgG1, kappa, L234A L235A, N297A, name in Kabat numbering)
heavy: B1 heavy with T105A, D110K
chain: B1 chain
light: B1 light
notes: one-arm antibody (one Fab)
B9: CE115HA000 A102I one-arm antibody (antibody, human IgG1, kappa, L234A L235A, N297A, name in Kabat numbering)
heavy: B1 heavy with T105A, A111I
chain: B1 chain
light: B1 light
notes: one-arm antibody (one Fab)
B10: CE115HA000 D101T one-arm antibody (antibody, human IgG1, kappa, L234A L235A, N297A, name in Kabat numbering)
heavy: B1 heavy with T105A, D110T
chain: B1 chain
light: B1 light
notes: one-arm antibody (one Fab)
B11: CE115HA000 D101Y one-arm antibody (antibody, human IgG1, kappa, L234A L235A, N297A, name in Kabat numbering)
heavy: B1 heavy with T105A, D110Y
chain: B1 chain
light: B1 light
notes: one-arm antibody (one Fab)
B12: CE115HA000 D101M one-arm antibody (antibody, human IgG1, kappa, L234A L235A, N297A, name in Kabat numbering)
heavy: B1 heavy with T105A, D110M
chain: B1 chain
light: B1 light
notes: one-arm antibody (one Fab)
B13: CE115HA000 D101G one-arm antibody (antibody, human IgG1, kappa, L234A L235A, N297A, name in Kabat numbering)
heavy: B1 heavy with T105A, D110G
chain: B1 chain
light: B1 light
notes: one-arm antibody (one Fab)
B14: CE115HA000 D101L one-arm antibody (antibody, human IgG1, kappa, L234A L235A, N297A, name in Kabat numbering)
heavy: B1 heavy with T105A, D110L
chain: B1 chain
light: B1 light
notes: one-arm antibody (one Fab)
B15: CE115HA000 D73T one-arm antibody (antibody, human IgG1, kappa, L234A L235A, N297A, name in Kabat numbering)
heavy: B1 heavy with D76T, T105A
chain: B1 chain
light: B1 light
notes: one-arm antibody (one Fab)
B16: CE115HA000 A99Y one-arm antibody (antibody, human IgG1, kappa, L234A L235A, N297A, name in Kabat numbering)
heavy: B1 heavy with T105Y
chain: B1 chain
light: B1 light
notes: one-arm antibody (one Fab)
B17: CE115HA000 D101N one-arm antibody (antibody, human IgG1, kappa, L234A L235A, N297A, name in Kabat numbering)
heavy: B1 heavy with T105A, D110N
chain: B1 chain
light: B1 light
notes: one-arm antibody (one Fab)
B18: CE115HA000 D101S one-arm antibody (antibody, human IgG1, kappa, L234A L235A, N297A, name in Kabat numbering)
heavy: B1 heavy with T105A, D110S
chain: B1 chain
light: B1 light
notes: one-arm antibody (one Fab)
B19: CE115HA000 D72V one-arm antibody (antibody, human IgG1, kappa, L234A L235A, N297A, name in Kabat numbering)
heavy: B1 heavy with D75V, T105A
chain: B1 chain
light: B1 light
notes: one-arm antibody (one Fab)
B20: CE115HA000 D101H one-arm antibody (antibody, human IgG1, kappa, L234A L235A, N297A, name in Kabat numbering)
heavy: B1 heavy with T105A, D110H
chain: B1 chain
light: B1 light
notes: one-arm antibody (one Fab)
B21: CE115HA000 G98D one-arm antibody (antibody, human IgG1, kappa, L234A L235A, N297A, name in Kabat numbering)
heavy: B1 heavy with G104D, T105A
chain: B1 chain
light: B1 light
notes: one-arm antibody (one Fab)
B22: CE115HA000 D73N one-arm antibody (antibody, human IgG1, kappa, L234A L235A, N297A, name in Kabat numbering)
heavy: B1 heavy with D76N, T105A
chain: B1 chain
light: B1 light
notes: one-arm antibody (one Fab)
B23: CE115HA000 G98P one-arm antibody (antibody, human IgG1, kappa, L234A L235A, N297A, name in Kabat numbering)
heavy: B1 heavy with G104P, T105A
chain: B1 chain
light: B1 light
notes: one-arm antibody (one Fab)
B24: CE115HA000 E61Q one-arm antibody (antibody, human IgG1, kappa, L234A L235A, N297A, name in Kabat numbering)
heavy: B1 heavy with E64Q, T105A
chain: B1 chain
light: B1 light
notes: one-arm antibody (one Fab)
B25: CE115HA000 D101P one-arm antibody (antibody, human IgG1, kappa, L234A L235A, N297A, name in Kabat numbering)
heavy: B1 heavy with T105A, D110P
chain: B1 chain
light: B1 light
notes: one-arm antibody (one Fab)
B26: CE115HA000 D101R one-arm antibody (antibody, human IgG1, kappa, L234A L235A, N297A, name in Kabat numbering)
heavy: B1 heavy with T105A, D110R
chain: B1 chain
light: B1 light
notes: one-arm antibody (one Fab)
B27: CE115HA000 D101V one-arm antibody (antibody, human IgG1, kappa, L234A L235A, N297A, name in Kabat numbering)
heavy: B1 heavy with T105A, D110V
chain: B1 chain
light: B1 light
notes: one-arm antibody (one Fab)
B28: CE115HA000 D73R one-arm antibody (antibody, human IgG1, kappa, L234A L235A, N297A, name in Kabat numbering)
heavy: B1 heavy with D76R, T105A
chain: B1 chain
light: B1 light
notes: one-arm antibody (one Fab)
B29: CE115HA000 A102P one-arm antibody (antibody, human IgG1, kappa, L234A L235A, N297A, name in Kabat numbering)
heavy: B1 heavy with T105A, A111P
chain: B1 chain
light: B1 light
notes: one-arm antibody (one Fab)
B30: CE115HA000 A102V one-arm antibody (antibody, human IgG1, kappa, L234A L235A, N297A, name in Kabat numbering)
heavy: B1 heavy with T105A, A111V
chain: B1 chain
light: B1 light
notes: one-arm antibody (one Fab)
B31: CE115HA000 E61P one-arm antibody (antibody, human IgG1, kappa, L234A L235A, N297A, name in Kabat numbering)
heavy: B1 heavy with E64P, T105A
chain: B1 chain
light: B1 light
notes: one-arm antibody (one Fab)
B32: CE115HA000 G98K one-arm antibody (antibody, human IgG1, kappa, L234A L235A, N297A, name in Kabat numbering)
heavy: B1 heavy with G104K, T105A
chain: B1 chain
light: B1 light
notes: one-arm antibody (one Fab)

Positions count from the first letter of the chain named. Names may count otherwise.

In the assay the target is T1, CD3 epsilon homodimer protein (UniProt P07766 23-126).
T1 construct: Immobilized on Sensor chip CM4 by amine coupling; construct not described; also called CD3 (CD3 epsilon)
T1 sequence (P07766 23-126): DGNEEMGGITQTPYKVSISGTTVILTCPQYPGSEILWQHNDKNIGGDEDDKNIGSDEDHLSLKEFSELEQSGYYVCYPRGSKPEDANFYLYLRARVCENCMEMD
Nature of the assay: SPR Biacore T200, CD3 epsilon homodimer on CM4 chip, antibody as analyte.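 Also: Amine-coupled CD3 epsilon homodimer, run at 25 °C in HBS-EP+ buffer, ratio is bound amount of each single-residue H chain variant over that of the parent antibody.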
On to B1, for which the “ratio of amounts bound (Y/X vs CE115HA000)” value (“ratio of amounts bound” for short) worked out at 0.84.

Consider B2, for which the “ratio of amounts bound” value came to 0.75. For the molecule B3, the “ratio of amounts bound” value turned out to be 1.18. B4: the “ratio of amounts bound” value was determined as 2.35. As for B5, the figure is 1.1.

As to B6, the “ratio of amounts bound” value was found to be 1.58. On to B7, for which the “ratio of amounts bound” value came to 0.91. Consider B8, for which the “ratio of amounts bound” value came out at 0.63.

As for B9, the “ratio of amounts bound” value was found to be 1.48. Next, B10: 0.79; B11: 0.49. For B12, the “ratio of amounts bound” value worked out at 1.2. For the molecule B13, the “ratio of amounts bound” value came out at 1.38.

B14: the “ratio of amounts bound” value was determined as 0.62. For the molecule B15, the “ratio of amounts bound” value was 0.63.

Take B16: the “ratio of amounts bound” value came to 1.59.

As for B17, the “ratio of amounts bound” value worked out at 2.02. As for B18, the “ratio of amounts bound” value came out at 1.16. Consider B19, for which the “ratio of amounts bound” value amounted to 1.43. In the case of B20, the “ratio of amounts bound” value came out at 1.21. On to B21, for which the “ratio of amounts bound” value was 0.26.

B22: the “ratio of amounts bound” value stood at 0.94. As to B23, the “ratio of amounts bound” value turned out to be 1.02.

As to B24, the “ratio of amounts bound” value was 1.07. Take B25: the “ratio of amounts bound” value amounted to 0.2. As to B26, the “ratio of amounts bound” value amounted to 0.24.

B27: the “ratio of amounts bound” value was found to be 1.33.

On to B28, for which the “ratio of amounts bound” value amounted to 1.04. On to B29, for which the “ratio of amounts bound” value came out at 0.14.

For B30, the “ratio of amounts bound” value amounted to 1.43.

Turning to B31, the “ratio of amounts bound” value is 1.07. For the molecule B32, the “ratio of amounts bound” value came to 2.83.
